Test system: primary human cell cultures (11 cell types)
Experiment: Custom gene array, 11 human cell types in normoxia or hypoxia for 6 hr and 18 hr;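 for mRNA expression level, #1 HY 18 hr: cell type #1 is adipocyte from subcutaneous adult adipose tissue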;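 for mRNA expression level, #1 HY 6 hr: cell type #1 is adipocyte from subcutaneous adult adipose tissue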;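 for mRNA expression level, #1 NO: cell type #1 is adipocyte from subcutaneous adult adipose tissue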;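 for mRNA expression level, #2 HY 18 hr: cell type #2 is fetal cardiomyocyte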;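 for mRNA expression level, #2 HY 6 hr: cell type #2 is fetal cardiomyocyte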;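 for mRNA expression level, #2 NO: cell type #2 is fetal cardiomyocyte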;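 for mRNA expression level, #3 HY 6 hr: cell type #3 is human umbilical vein endothelial cells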;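 for mRNA expression level, #3 NO: cell type #3 is human umbilical vein endothelial cells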;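 for mRNA expression level, #4 HY 18 hr: cell type #4 is adult dermal fibroblast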;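 for mRNA expression level, #4 HY 6 hr: cell type #4 is adult dermal fibroblast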;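 for mRNA expression level, #4 NO: cell type #4 is adult dermal fibroblast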;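 for mRNA expression level, #6 HY 6 hr: cell type #6 is blood-derived macrophage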;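 for mRNA expression level, #6 NO: cell type #6 is blood-derived macrophage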
Assay type: cell-based
Conditions: for mRNA expression level, #1 HY 6 hr: cell type #1, hypoxia 6 hr; for mRNA expression level, #1 HY 18 hr: cell type #1, hypoxia 18 hr; for mRNA expression level, #1 NO: cell type #1, normoxia; for mRNA expression level, #2 HY 6 hr: cell type #2, hypoxia 6 hr; for mRNA expression level, #2 HY 18 hr: cell type #2, hypoxia 18 hr; for mRNA expression level, #2 NO: cell type #2, normoxia; for mRNA expression level, #3 HY 6 hr: cell type #3, hypoxia 6 hr; for mRNA expression level, #3 HY 18 hr: cell type #3, hypoxia 18 hr; for mRNA expression level, #3 NO: cell type #3, normoxia; for mRNA expression level, #4 HY 6 hr: cell type #4, hypoxia 6 hr; for mRNA expression level, #4 HY 18 hr: cell type #4, hypoxia 18 hr; for mRNA expression level, #4 NO: cell type #4, normoxia; for mRNA expression level, #5 HY 6 hr: cell type #5, hypoxia 6 hr; for mRNA expression level, #5 NO: cell type #5, normoxia; for mRNA expression level, #6 HY 6 hr: cell type #6, hypoxia 6 hr; for #6 HY 18 hr (mRNA expression level): cell type #6, hypoxia 18 hr; for mRNA expression level, #6 NO: cell type #6, normoxia; for #7 HY 6 hr (mRNA expression level): cell type #7, hypoxia 6 hr; for #7 HY 18 hr (mRNA expression level): cell type #7, hypoxia 18 hr; for #7 NO (mRNA expression level): cell type #7, normoxia; for #8 HY 6 hr (mRNA expression level): cell type #8, hypoxia 6 hr; for #8 HY 18 hr (mRNA expression level): cell type #8, hypoxia 18 hr; for #8 NO (mRNA expression level): cell type #8, normoxia; for #9 HY 6 hr (mRNA expression level): cell type #9, hypoxia 6 hr; for #9 HY 18 hr (mRNA expression level): cell type #9, hypoxia 18 hr; for #9 NO (mRNA expression level): cell type #9, normoxia; for #10 HY 6 hr (mRNA expression level): cell type #10, hypoxia 6 hr; for #10 HY 18 hr (mRNA expression level): cell type #10, hypoxia 18 hr; for #10 NO (mRNA expression level): cell type #10, normoxia; for #11 HY 6 hr (mRNA expression level): cell type #11, hypoxia 6 hr; for #11 HY 18 hr (mRNA expression level): cell type #11, hypoxia 18 hr; for #11 NO (mRNA expression level): cell type #11, normoxia
Procedure: Equivalent cultures of non-immortalized, non-transformed primary human cells of 10 distinct types, were cultured in either normoxia or were exposed to hypoxia for 6 hr and 18 hr, and gene expression changes were determined. […] Moreover, unlike the vast majority of information in the public domain relating to genes responsive to hypoxia, all of these cells were human and were cultured without any modifications following isolation from the human donors.
A non-primary cell type (#9) was used to represent neurons, since primary human neurons are difficult to source. Therefore a total of 11 cell types are compared. It should be noted that RNA from hepatocytes at the […] timepoint of hypoxia was not available for this work.
Each RNA sample was hybridised to duplicate or triplicate arrays, to ensure reproducible data, and was analysed using GeneSpring software. Data from replicate arrays were merged during analysis to generate mean values. Data normalisation was achieved per-array using the aforementioned list of control genes, such that differences in RNA labelling or hybridization due to experimental variation were corrected by referencing each gene to the mean value of the reference genes on the same array. Also, for each gene, expression values were obtained which represent the value in each experimental condition (e.g. macrophages 6 hr hypoxia) as compared to the median of value of that gene throughout the full range of experimental conditions (i.e. from all cell types). […] This is common in microarray data analysis.

[1] = cell type #1, HY (hypoxia) 6 hr
[2] = cell type #1, HY (hypoxia) 18 hr
[3] = cell type #2, HY (hypoxia) 6 hr
[4] = cell type #2, HY (hypoxia) 18 hr
[5] = cell type #3, HY (hypoxia) 6 hr
[6] = cell type #3, HY (hypoxia) 18 hr
[7] = cell type #4, HY (hypoxia) 6 hr
[8] = cell type #4, HY (hypoxia) 18 hr
[9] = cell type #5, HY (hypoxia) 6 hr
[10] = cell type #6, HY (hypoxia) 6 hr
[11] = hypoxia/normoxia induction ratio, 18 hr monocyte

B1: p1G21 (nucleic acid, listed as Homo Sapiens)
DNA: TTTTACATACTAGATTTATTAAAGTGACCATAAGTGCCGAAGCGGTTTTCTAATGGAAAGCAGACTGGATTCACAACACAGAAGCAGAATTGGTGGAACAGGCTTTCGGGAACTTTCTTCCCCTGGTCACACGGCAGATCGGTCCCCAAGGACAGGTGCTCAGCCAGGACTTTTGCTTTAAGAAGGATTTGTCTNGAGAAAGGACTAGAGAGAAATCCAGCTCAGATGTATTGCTCATTCCTCTTCAGAAGGACTGGGTNGGAATGGAGCAGGGGCTAGAGGAATCTGGAAGCTAATTCTTTTAGGCTTTTTCCAACAGAGGGAAGCAGAGGGACTTCTGGGTCTTGAAGTTTGGAGCTTACGGAGGCGA
modifications: misc_feature 195, 260: n = A,T,C or G
HIGHEST FOLD CHANGE IN HYPOXIA (hr hypoxia + cell type) (DOWN, 6 hr macrophage): 1.85 DOWN (6 hr macrophage) ^ fold
mRNA expression level [1]: 1.01
mRNA expression level [2]: 0.55
mRNA expression level (cell type #1, NO (normoxia)): 0.99
mRNA expression level [3]: 1.48
mRNA expression level [4]: 1.10
mRNA expression level (cell type #2, NO (normoxia)): 2.02
mRNA expression level [5]: 1.13
mRNA expression level [6]: 0.80
mRNA expression level (cell type #3, NO (normoxia)): 1.54
mRNA expression level [7]: 0.65
mRNA expression level [8]: 0.60
mRNA expression level (cell type #4, NO (normoxia)): 0.78
mRNA expression level [9]: 1.35
mRNA expression level (cell type #5, NO (normoxia)): 0.72
mRNA expression level [10]: 0.69
mRNA expression level (cell type #6, NO (normoxia)): 1.28

B2: p1E9 (nucleic acid, listed as Homo Sapiens)
DNA: AGACCCCCCAGGGTGCCTCCGAGAGCTGCCTCACAGAGGACTCCGACCAGGGAGACCTTCCATCCTCCTCCACCTGTTCCACCCAGAGGACGCTGATTCCACCTCCTAAAACCTGCCTACTTCAGGACTTTAAGACTCACAGTCTTCAGCCTGTTAATGATGTCTTCATGTTGAGTTTTATAGCATGACTGTTGACCTTAAGATCCATTCTCATTGCTGATAATGCTGCAGCCCTGCTGGTTTGGGCTTGCTCGAAGATTTTATTAAGGCACGAAGAAGTGAAAAACTAAGGGCTTCATTCACCATCACCAAGTATATCGAACCATATACTTGTTTGCCAAAAGGGTGGAAGGACTTTAATTCGGAAATACTTTACCTCTTAATTTGGCCATATTCAGGAGGCCTAAAAGGATTGATCCNTAATGTTATTTCACCGTGGTTTTTATTGAATGG
modifications: misc_feature 420: n = A,T,C or G
mRNA expression level, #1 HY 6 hr: 0.89
mRNA expression level, #1 HY 18 hr: 1.48
mRNA expression level, #1 NO: 1.54
mRNA expression level, #2 HY 6 hr: 1.80
mRNA expression level, #2 HY 18 hr: 1.53
mRNA expression level, #2 NO: 1.18
mRNA expression level, #3 HY 6 hr: 0.82
mRNA expression level, #3 HY 18 hr: 0.60
mRNA expression level, #3 NO: 0.68
mRNA expression level, #4 HY 6 hr: 0.64
mRNA expression level, #4 HY 18 hr: 0.73
mRNA expression level, #4 NO: 0.60
mRNA expression level, #5 HY 6 hr: 1.62
mRNA expression level, #5 NO: 0.92
mRNA expression level, #6 HY 6 hr: 3.97
#6 HY 18 hr (mRNA expression level): 6.19
mRNA expression level, #6 NO: 4.20
#7 HY 6 hr (mRNA expression level): 0.42
#7 HY 18 hr (mRNA expression level): 0.18
#7 NO (mRNA expression level): 0.25
#8 HY 6 hr (mRNA expression level): 3.63
#8 HY 18 hr (mRNA expression level): 5.01
#8 NO (mRNA expression level): 2.33
#9 HY 6 hr (mRNA expression level): 0.80
#9 HY 18 hr (mRNA expression level): 0.85
#9 NO (mRNA expression level): 0.93
#10 HY 6 hr (mRNA expression level): 0.61
#10 HY 18 hr (mRNA expression level): 0.61
#10 NO (mRNA expression level): 0.57
#11 HY 6 hr (mRNA expression level): 1.37
#11 HY 18 hr (mRNA expression level): 1.17
#11 NO (mRNA expression level): 1.58
HIGHEST FOLD CHANGE IN HYPOXIA (hr hypoxia + cell type) [11]: 2.15 (18 hr monocyte) fold

B3: p1G22 (nucleic acid, listed as Homo Sapiens)
DNA: TTTTTTTTTGTTTCTGTTTTGTTTTTTCTTTTGCACTGATATATACCATACCAACATTGCAAGATGCAAAGTGTGGAAACTGGAGTTTAAATAAAATTACAAGGCAAAACTACCCCATCCCAAGTGCGGTTGCTGTACATATCTACAGTACAATTTTTGGAATGTATTGCCATTTAAGAACATAGAAACTTTCTACAGACAATTTCACATACAGAATACGTACACCTTTTAGAAAAAAAGGCAAATATTTATCTTACAGAGAGCATTGTATTTTACATTTGCCTGCACGTTTCTTTTTTCTGTTTCTTTTCTTTCTTTCTTTTTTTACATACTAGGATTTATTAAAGTGACCATAAGGTGCCCGANGCGGGTTTTCTAATGGGNAAGCAGACTGGGNTTCACCAACACAGGNGCAGGATTGGGTGGGACAGGCTTTCGGGGACCTTTCTTCCCCTGGGNCACACGGGCAGATCCGGTCCCCAAGGGCAGGNTGTTCAGCCNGGGGCTTTTNCTTTT
modifications: misc_feature 366, 384, 397, 412, 459, 491, 501, 511: n = A,T,C or G
HIGHEST FOLD CHANGE IN HYPOXIA (hr hypoxia + cell type) (DOWN, 18 hr mam epithelial): 2.38 DOWN (18 hr mam epithelial) ^ fold
mRNA expression level [1]: 0.78
mRNA expression level [2]: 0.72
mRNA expression level (cell type #1, NO (normoxia)): 1.14
mRNA expression level [3]: 2.67
mRNA expression level [4]: 1.41
mRNA expression level (cell type #2, NO (normoxia)): 2.75
mRNA expression level [5]: 12.7
mRNA expression level [6]: 8.79
mRNA expression level (cell type #3, NO (normoxia)): 8.35
mRNA expression level [7]: 1.21
mRNA expression level [8]: 1.01
mRNA expression level (cell type #4, NO (normoxia)): 1.35
mRNA expression level [9]: 0.70
mRNA expression level (cell type #5, NO (normoxia)): 0.59
mRNA expression level [10]: 0.63
mRNA expression level (cell type #6, NO (normoxia)): 0.77

B4: p1F1 (nucleic acid, listed as Homo Sapiens)
DNA: TTTGTGTGGTCTTTTTTTTTTTTTCTCAGTGTTTTCAATTCCTCCTTGGTTGAATCCATGGATGCAAAACCCACAGATATGAAGGGCTGGCTATATATGCATTGATGATTGTCCTATTATATTAGTTATAAAGTGTCATTTAATATGTAGTGAAAGTTATGGTACAGTGGAAAGAGTAGTTGAAAACATAAACATTTGGGCCTTTCAAGAAAGGTAGCTTGGTGAAGTTTTTCACCTTCAAACTATGTCCCAGTCAGGG
mRNA expression level, #1 HY 6 hr: 0.33
mRNA expression level, #1 HY 18 hr: 0.52
mRNA expression level, #1 NO: 0.58
mRNA expression level, #2 HY 6 hr: 1.19
mRNA expression level, #2 HY 18 hr: 1.14
mRNA expression level, #2 NO: 1.42
mRNA expression level, #3 HY 6 hr: 1.70
mRNA expression level, #3 HY 18 hr: 1.49
mRNA expression level, #3 NO: 1.64
mRNA expression level, #4 HY 6 hr: 0.63
mRNA expression level, #4 HY 18 hr: 0.54
mRNA expression level, #4 NO: 0.95
mRNA expression level, #5 HY 6 hr: 0.50
mRNA expression level, #5 NO: 0.37
mRNA expression level, #6 HY 6 hr: 0.61
#6 HY 18 hr (mRNA expression level): 0.51
mRNA expression level, #6 NO: 0.62
#7 HY 6 hr (mRNA expression level): 0.90
#7 HY 18 hr (mRNA expression level): 0.30
#7 NO (mRNA expression level): 0.91
#8 HY 6 hr (mRNA expression level): 0.53
#8 HY 18 hr (mRNA expression level): 0.66
#8 NO (mRNA expression level): 0.34
#9 HY 6 hr (mRNA expression level): 1.23
#9 HY 18 hr (mRNA expression level): 1.06
#9 NO (mRNA expression level): 1.66
#10 HY 6 hr (mRNA expression level): 1.58
#10 HY 18 hr (mRNA expression level): 1.03
#10 NO (mRNA expression level): 1.46
#11 HY 6 hr (mRNA expression level): 1.24
#11 HY 18 hr (mRNA expression level): 1.06
#11 NO (mRNA expression level): 1.25
HIGHEST FOLD CHANGE IN HYPOXIA (hr hypoxia + cell type) [11]: 1.96 (18 hr monocyte) fold
